We go through 1 substance from patent publication US20160228520A1.

The target in this test is PR-3 receptor (proteinase 3) on TNF-primed human peripheral blood neutrophils (human) (UniProt P24158). Description: cell-based or functional assay.
Chain of UniProt P24158 (P24158 28-248): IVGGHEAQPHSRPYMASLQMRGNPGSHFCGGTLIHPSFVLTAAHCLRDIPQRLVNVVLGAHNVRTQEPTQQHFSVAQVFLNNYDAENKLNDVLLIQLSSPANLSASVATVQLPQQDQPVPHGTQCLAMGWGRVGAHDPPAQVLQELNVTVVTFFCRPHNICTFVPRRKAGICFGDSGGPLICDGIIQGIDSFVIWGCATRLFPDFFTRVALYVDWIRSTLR

On to “α1-antichymotrypsin (Athens Research & Technology, Cat. No. 16-16-012400) (from UniProt P01011 24-423)”, for which the % Release of calcein from HUVEC, α-PR3 mAbs added, negative control (0.25 mg/mL α1 antichymotrypsin by the text) is 21.9% and the Mean fluorescence, HUVEC assay, α-PR3 mAbs added, negative control came out at 4420.
